{"source": "paper PMC2211816", "target": "GST-KLF2 (UniProt Q60843 1-354)", "sequence (Q60843 whole entry)": "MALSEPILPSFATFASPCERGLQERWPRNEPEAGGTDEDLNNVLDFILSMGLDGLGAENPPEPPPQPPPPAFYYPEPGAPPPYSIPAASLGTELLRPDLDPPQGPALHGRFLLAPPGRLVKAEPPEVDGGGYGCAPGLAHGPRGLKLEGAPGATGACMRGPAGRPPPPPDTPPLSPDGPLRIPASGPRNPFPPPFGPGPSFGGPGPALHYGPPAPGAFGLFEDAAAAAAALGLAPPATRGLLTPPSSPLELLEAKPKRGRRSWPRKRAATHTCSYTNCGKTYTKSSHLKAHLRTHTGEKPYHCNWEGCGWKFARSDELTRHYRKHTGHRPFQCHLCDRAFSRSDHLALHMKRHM", "experiment": "EMSA", "data": [{"binder": "eNOS promoter KLF site (-644 to -652) probe (dsDNA) DNA 1: GTCATGGGGGTGTGGGGGTTCCAGGAAAT DNA 2: ATTTCCTGGAACCCCCACACCCCCATGAC", "values": [{"measurement": "binding result", "result": "binds"}]}]}
